Results reported in US20110046056A1, “APOA-1 PEPTIDE MIMETICS” (priority 2007, published 2011).
*1 amine or outer side, *2 acyl side, *3 side chain or, on linkers, in order; H or OH if unused. Where a SMILES comes first, the peptide text is derived from it. Bridges are numbered along the chain shown (N, C = ends). Where no end group is shown, it is not given here. Side-chain parts run from the residue outwards. [ ]: non-standard residue; d: D form. S6H = (2S)-2-aminooct-7-enoic acid, C=CCCCC[C@H](N[*:1])C(=O)[*:2]; OXA12 = PEG spacer connecting glycine to cholesterol; Gly(oct-7-en-1-yl) = C=CCCCCCC[C@H](N)C(=O)O; dGly(6-heptenyl) = C=CCCCCC[C@@H](N)C(=O)O; Ala(5-hexenyl) = C=CCCCCC[C@H](N)C(=O)O; Gla = N[C@@H](CC(C(=O)O)C(=O)O)C(=O)O; X6 = CCCCCCC[C@H](N[*:1])C(=O)[*:2]; R5H = not defined here; MA = not defined here; Aib = CC(C)(N)C(=O)O

biological target: T1, ABCA1 cholesterol transporter protein (Mus musculus, UniProt P41233); assay: ABCA1-dependent cholesterol efflux from RAW mouse macrophage cells (in vitro RCT assay); assay type: cell-based; conditions: not given
T1 construct: endogenous in cells
T1 sequence (P41233 whole entry): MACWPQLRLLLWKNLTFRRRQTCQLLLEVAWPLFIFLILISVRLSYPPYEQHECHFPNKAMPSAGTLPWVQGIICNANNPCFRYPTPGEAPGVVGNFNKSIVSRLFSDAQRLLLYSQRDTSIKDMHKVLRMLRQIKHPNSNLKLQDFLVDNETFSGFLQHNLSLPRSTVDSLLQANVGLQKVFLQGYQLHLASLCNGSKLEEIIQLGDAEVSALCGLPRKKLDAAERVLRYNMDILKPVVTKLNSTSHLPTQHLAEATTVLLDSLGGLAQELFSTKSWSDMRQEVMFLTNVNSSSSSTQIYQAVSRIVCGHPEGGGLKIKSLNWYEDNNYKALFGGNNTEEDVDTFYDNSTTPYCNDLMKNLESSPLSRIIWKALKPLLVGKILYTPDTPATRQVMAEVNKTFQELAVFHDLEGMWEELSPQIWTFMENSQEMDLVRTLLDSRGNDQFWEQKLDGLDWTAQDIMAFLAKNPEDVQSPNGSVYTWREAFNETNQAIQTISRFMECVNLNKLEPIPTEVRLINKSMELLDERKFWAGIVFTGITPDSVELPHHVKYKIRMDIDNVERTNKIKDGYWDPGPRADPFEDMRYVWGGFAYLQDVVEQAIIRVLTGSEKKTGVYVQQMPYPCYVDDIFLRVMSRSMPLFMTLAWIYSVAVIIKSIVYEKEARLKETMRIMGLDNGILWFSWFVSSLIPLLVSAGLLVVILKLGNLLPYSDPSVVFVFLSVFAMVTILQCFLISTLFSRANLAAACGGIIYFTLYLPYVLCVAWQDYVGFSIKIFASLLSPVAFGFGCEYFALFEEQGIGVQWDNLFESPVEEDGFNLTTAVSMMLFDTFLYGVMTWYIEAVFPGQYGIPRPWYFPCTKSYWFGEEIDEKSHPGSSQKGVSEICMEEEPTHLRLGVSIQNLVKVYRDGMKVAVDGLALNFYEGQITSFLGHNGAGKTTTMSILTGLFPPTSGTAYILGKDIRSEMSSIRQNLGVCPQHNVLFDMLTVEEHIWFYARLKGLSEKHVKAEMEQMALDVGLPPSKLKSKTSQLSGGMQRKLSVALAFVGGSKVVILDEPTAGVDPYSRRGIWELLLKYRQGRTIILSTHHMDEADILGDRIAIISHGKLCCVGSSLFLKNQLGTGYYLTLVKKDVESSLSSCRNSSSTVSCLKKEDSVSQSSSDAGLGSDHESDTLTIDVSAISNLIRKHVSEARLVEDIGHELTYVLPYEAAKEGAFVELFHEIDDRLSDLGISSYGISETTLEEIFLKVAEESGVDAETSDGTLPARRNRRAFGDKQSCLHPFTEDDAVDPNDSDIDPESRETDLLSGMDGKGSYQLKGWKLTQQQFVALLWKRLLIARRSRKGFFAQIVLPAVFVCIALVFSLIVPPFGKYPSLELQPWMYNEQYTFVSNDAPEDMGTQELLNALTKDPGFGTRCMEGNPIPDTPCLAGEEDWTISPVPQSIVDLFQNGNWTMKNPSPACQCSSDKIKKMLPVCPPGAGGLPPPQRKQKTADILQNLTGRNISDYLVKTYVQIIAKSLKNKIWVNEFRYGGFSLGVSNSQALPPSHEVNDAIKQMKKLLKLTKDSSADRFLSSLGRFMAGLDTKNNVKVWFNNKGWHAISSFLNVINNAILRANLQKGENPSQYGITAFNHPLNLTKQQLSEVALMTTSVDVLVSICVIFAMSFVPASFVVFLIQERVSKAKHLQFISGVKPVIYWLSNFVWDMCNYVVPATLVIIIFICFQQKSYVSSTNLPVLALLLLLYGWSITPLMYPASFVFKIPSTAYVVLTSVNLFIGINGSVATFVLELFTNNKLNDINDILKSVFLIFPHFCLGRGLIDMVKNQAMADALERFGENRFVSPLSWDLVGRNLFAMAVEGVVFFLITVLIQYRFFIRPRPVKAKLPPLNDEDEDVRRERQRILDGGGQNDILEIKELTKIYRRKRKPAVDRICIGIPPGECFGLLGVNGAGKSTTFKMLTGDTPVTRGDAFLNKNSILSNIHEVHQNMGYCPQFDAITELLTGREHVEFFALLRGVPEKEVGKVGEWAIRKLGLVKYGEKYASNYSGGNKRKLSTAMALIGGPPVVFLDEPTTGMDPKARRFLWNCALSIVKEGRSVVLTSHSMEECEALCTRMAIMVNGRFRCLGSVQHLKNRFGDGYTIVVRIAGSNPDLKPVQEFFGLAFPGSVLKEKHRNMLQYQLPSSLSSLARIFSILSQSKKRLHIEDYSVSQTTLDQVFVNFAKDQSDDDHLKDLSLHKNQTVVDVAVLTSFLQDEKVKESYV
Excerpt: Peptides of the present invention were designed based on amphipathic properties and their abilities to solubilize phospholipids and promote cholesterol efflux. The most direct functional measurement of efficacy for the ApoA-1 peptide mimetic is its capacity to improve the efflux of cholesterol from the cell. The RAW and J774 cell lines are reliable mouse macrophage cell lines frequently used in the art for this purpose. […] The RAW cell line is preferred and recited in the description below.
In the present assay, the RAW cells are plated at 1.5×10^5 cells/200 μl/well/48-well plate in DMEM complete medium (with 10% FBS from INVITROGEN and 1% penicillin-streptomycin-glutamine from GIBCO) and ^3H-cholesterol at 5 μCi/ml. After 24 hours incubation in a moist 37° C. atmosphere with 5% CO2, the spent medium is removed, the cells are washed once with serum-free DMEM (0.1% fatty acid free bovine serum albumin replaces the FBS), and fresh serum-free medium (200 μl) is added to each well. After overnight incubation in the serum-free medium to allow the cellular cholesterol pools to equilibrate, the spent medium is removed, and fresh serum-free medium is added with/without CPT-cAMP (150 μM final). Eight-point serial titrations of the peptide/s being tested are added at this time (duplicate titrations in plain medium without cAMP and duplicate titrations in medium containing cAMP).
After 24 hours incubation in the various conditions, the medium is harvested from each well and 50 μl aliquots are counted. The cells are then lysed by adding 500 μl of HEPES/Triton lysis buffer to each well. The lysis is facilitated by freezing and thawing once. After thawing, the lysates are mixed well and 50 μl aliquots are counted.
The percent efflux of each peptide in each medium condition (±cAMP) is calculated by dividing the total counts in the medium by the sum of the total counts in the medium and lysate. The percent efflux seen with plain medium is subtracted from the percent efflux seen with the cAMP-stimulated efflux to yield the reported ABCA1-stimulated values. EC50 values are determined using PRISM software (Table 2).

Row | Molecule | activity in the cholesterol efflux / in vitro RCT assay, in words
1 | PVLDEFREKLNEELEALKQS6HLK (Ac-PVLDEFREKLNEELEALKQ[S6H]LK; not fully specified (C-terminus); printed as PVLDEFREKLNEELEALKQS6HLK) [SEQ ID NO 25] | only slightly active
2 | PVLDEFREKLNEELEALKQR7HLK (Ac-PVLDEFREKLNEELEALKQ[dGly(6-heptenyl)]LK; not fully specified (C-terminus); printed as PVLDEFREKLNEELEALKQR7HLK) [SEQ ID NO 22] | only slightly active

same assay, conditions: read-out: EC50 in the cholesterol efflux assay (RCT in vitro assay)

Row | Molecule | EC50 [nM]
3 | CCCCCCC[C@H](NC(=O)[C@H](CCC(=O)O)NC(=O)[C@H](CC(N)=O)NC(=O)[C@H](CC(C)C)NC(=O)[C@H](CCCCN)NC(=O)[C@H](CCC(=O)O)NC(=O)[C@H](CCCNC(=N)N)NC(=O)[C@H](CCCCCCC)NC(=O)[C@H](CCC(=O)O)NC(=O)[C@H](CC(=O)O)NC(=O)[C@H](CC(C)C)NC(=O)[C@@H](NC(=O)[C@@H]1CCCN1C(C)=O)C(C)C)C(=O)N[C@@H](CC(C)C)C(=O)N[C@@H](CCC(=O)O)C(=O)N[C@@H](C)C(=O)N[C@@H](CC(C)C)C(=O)N[C@@H](CCCCN)C(=O)N[C@@H](CCC(N)=O)C(=O)N[C@@H](CCCCN)C(=O)N[C@@H](CC(C)C)C(=O)N[C@@H](CCCCN)C(N)=O [SEQ ID NO 50, PVLDES7H3REKLNES7H3LEALKQKLK] (Ac-PVLDE[X6]REKLNE[X6]LEALKQKLK-NH2; C-terminus assumed) | 300
4 | C=CCCCCC[C@H](NC(=O)[C@H](CCC(N)=O)NC(=O)[C@H](CCCCN)NC(=O)[C@H](CC(C)C)NC(=O)[C@H](C)NC(=O)[C@H](CCC(=O)O)NC(=O)[C@H](CC(C)C)NC(=O)[C@H](CCCCCC=C)NC(=O)[C@H](CCC(=O)O)NC(=O)[C@H](CC(N)=O)NC(=O)[C@H](CC(C)C)NC(=O)[C@H](CCCCN)NC(=O)[C@H](CCC(=O)O)NC(=O)[C@H](CCCN=C(N)N)NC(=O)[C@H](Cc1ccccc1)NC(=O)[C@H](CCC(=O)O)NC(=O)[C@H](CC(=O)O)NC(=O)[C@H](CC(C)C)NC(=O)[C@@H](NC(=O)[C@@H]1CCCN1C(C)=O)C(C)C)C(=O)N[C@@H](CC(C)C)C(=O)N[C@@H](CCCCN)C(N)=O [SEQ ID NO 44, PVLDEFREKLNES7HLEALKQS7HLK] (Ac-PVLDEFREKLNE[Ala(5-hexenyl)]LEALKQ[Ala(5-hexenyl)]LK-NH2) | 600
5 | C=CCCCCCC[C@H](NC(=O)[C@H](CCC(=O)O)NC(=O)[C@H](CC(N)=O)NC(=O)[C@H](CC(C)C)NC(=O)[C@H](CCCCN)NC(=O)[C@H](CCC(=O)O)NC(=O)[C@H](CCCN=C(N)N)NC(=O)[C@H](Cc1ccccc1)NC(=O)[C@H](CCC(=O)O)NC(=O)[C@H](CC(=O)O)NC(=O)[C@H](CC(C)C)NC(=O)[C@@H](NC(=O)[C@@H]1CCCN1C(C)=O)C(C)C)C(=O)N[C@@H](CC(C)C)C(=O)N[C@@H](CCC(=O)O)C(=O)N[C@@H](C)C(=O)N[C@@H](CC(C)C)C(=O)N[C@@H](CCCCN)C(=O)N[C@@H](CCC(N)=O)C(=O)N[C@@H](CCCCN)C(=O)N[C@@H](CC(C)C)C(=O)N[C@@H](CCCCN)C(N)=O [SEQ ID NO 32, PVLDEFREKLNES8HLEALKQKLK] (Ac-PVLDEFREKLNE[Gly(oct-7-en-1-yl)]LEALKQKLK-NH2) | 600
6 | CC(=O)N1CCC[C@H]1C(=O)N[C@H](C(=O)N[C@@H](CC(C)C)C(=O)N[C@@H](CC(=O)O)C(=O)N[C@@H](CCC(=O)O)C(=O)N[C@@H](Cc1ccccc1)C(=O)N[C@@H](CCCNC(=N)N)C(=O)N[C@@H](CCC(=O)O)C(=O)N[C@@H](CCCCN)C(=O)N[C@@H](CC(C)C)C(=O)N[C@@H](CC(N)=O)C(=O)N[C@@H](CCC(=O)O)C(=O)NC(C)(C)C(=O)N[C@@H](CC(C)C)C(=O)N[C@@H](CC(C(=O)O)C(=O)O)C(=O)N[C@@H](C)C(=O)N[C@@H](CC(C)C)C(=O)N[C@@H](CCCCN)C(=O)N[C@@H](CCC(N)=O)C(=O)N[C@@H](CCCCN)C(=O)N[C@@H](CC(C)C)C(=O)N[C@@H](CCCCN)C(N)=O)C(C)C [SEQ ID NO 4, PVLDEFREKLNEAIBLGLAALKQKLK] (Ac-PVLDEFREKLNE[Aib]L[Gla]ALKQKLK-NH2; C-terminus assumed) | 41000
7 | C=CCCCCC[C@H](NC(=O)[C@H](CCC(=O)O)NC(=O)[C@H](CC(N)=O)NC(=O)[C@H](CC(C)C)NC(=O)[C@H](CCCCN)NC(=O)[C@H](CCC(=O)O)NC(=O)[C@H](CCCN=C(N)N)NC(=O)[C@H](Cc1ccccc1)NC(=O)[C@H](CCC(=O)O)NC(=O)[C@H](CC(=O)O)NC(=O)[C@H](CC(C)C)NC(=O)[C@H](CCCCCC=C)NC(=O)[C@@H]1CCCN1C(C)=O)C(=O)N[C@@H](CC(C)C)C(=O)N[C@@H](CCC(=O)O)C(=O)N[C@@H](C)C(=O)N[C@@H](CC(C)C)C(=O)N[C@@H](CCCCN)C(=O)N[C@@H](CCC(N)=O)C(=O)N[C@@H](CCCCN)C(=O)N[C@@H](CC(C)C)C(=O)N[C@@H](CCCCN)C(N)=O [SEQ ID NO 42, PS7HLDEFREKLNES7HLEALKQKLK] (Ac-P[Ala(5-hexenyl)]LDEFREKLNE[Ala(5-hexenyl)]LEALKQKLK-NH2) | 300

biological target: ATP-binding cassette transporter A1 (ABCA1) (mouse, UniProt P41233 1-2261); assay: cell-based or functional assay; conditions: not given
Sequence (P41233 whole entry): as the sequence (P41233 whole entry) above

Row | Molecule | ABCA1-dependent cholesterol efflux EC50 [nM] | ABCA1-dependent cholesterol efflux, % at 100 uM [%] | ABCA1-dependent cholesterol efflux, % at 30 uM [%]
8 | PXLDEXREKLNEXLXALKQKLK (not fully specified; N-terminal acetyl (Ac-Pro); S7H at 2, 6 and 13; Gla at 15) [CONS[GLA^15, S7H^2,6,13]] | 600 |  | 
9 | Ac-P[Ala(5-hexenyl)]LDE[Ala(5-hexenyl)]REKLNE[Ala(5-hexenyl)]LEALKQ[Ala(5-hexenyl)]LK [CONS[S7H^2,6,13,20]] | 2000 |  | 
10 | Ac-P[Ala(5-hexenyl)]LDE[Ala(5-hexenyl)]REKLNE[Ala(5-hexenyl)]L[Gla]ALKQ[Ala(5-hexenyl)]LK [CONS[S7H^2,6,13,20, GLA^15]] | 2400 |  | 
11 | Ac-PVLDEFREKLNE[Ala(5-hexenyl)]LEALKQKLKPVLDEFREKLNE[Ala(5-hexenyl)]LEALKQKLK [CONS[S7H^13]2] | 41000 |  | 
12 | Ac-PVLDE[Ala(5-hexenyl)]REKLNE[Ala(5-hexenyl)]LEALKQKLKGCPVLDE[Ala(5-hexenyl)]REKLNE[Ala(5-hexenyl)]LEALKQKLKGC (disulfide 24-48; also: homodimer of two 24-residue chains listed as one 48-residue chain, second N-terminal acetyl not placed) [(CONS[S7H^6,13]-GC)2] | 1500 |  | 
13 | Ac-PVLDE[Ala(5-hexenyl)]REKLNE[Ala(5-hexenyl)]LEALKQKLKGC(branched mPEG 40 kDa) [CONS[S7H^6,13]-GC-PEG40] |  | 1 | 
14 | Ac-PVLDE[Ala(5-hexenyl)]REKLNE[Ala(5-hexenyl)]LEALKQKLKGC([MA-OXA12-Gly-cholesterol]) (not fully specified; reading uncertain) [CONS[S7H^6,13]-GC-OXA12-CHOLESTEROL] |  |  | 1.9
15 | Ac-[dP][dV][dL][dD][dE][S6H][dR][dE][dK][dL][dN][dE][dGly(6-heptenyl)][dL][dE][dA][dL][dK][dQ][dK][dL][dK] (not fully specified (C-terminus)) [D-CONS[S6H^6, R7H^13]] | 1200 |  | 
16 | Ac-[dP][dV][dL][dD][dE][dGly(6-heptenyl)][dR][dE][dK][dL][dN][dE][dGly(6-heptenyl)][dL][dE][dA][dL][dK][dQ][dK][dL][dK] [D-CONS[R7H^6,13]] |  | 17.7 | 
17 | Ac-[dP][dV][dL][dD][dE][Ala(5-hexenyl)][dR][dE][dK][dL][dN][dE][Ala(5-hexenyl)][dL][dE][dA][dL][dK][dQ][dK][dL][dK] (not fully specified (C-terminus)) [D-CONS[S7H^6,13]] | 3000 |  | 
18 | Ac-[dP][dV][dL][dD][dE][dGly(6-heptenyl)][dR][dE][dK][dL][dN][dE][dE][dL][dE][dA][dL][dK][dQ][dK][dL][dK] (not fully specified (C-terminus)) [D-CONS[R7H^6]] |  | 19 | 
19 | Ac-[dP][dV][dL][dD][dE][dF][dR][dE][dK][dL][dN][dE][dGly(6-heptenyl)][dL][dE][dA][dL][dK][dQ][dK][dL][dK] [D-CONS[R7H^13]] | 1100 |  | 
20 | Ac-PVLDEFREKLNE[R5H]LEA[R5H]KQKLK (reading uncertain) [R5H [E13-L17]R5H OPEN] |  |  | < 3
21 | Ac-PVLDEFRE[R5H]LNE[R5H]LEALKQKLK (reading uncertain) [R5H [K9-E13]R5H OPEN] | 46000 |  | 
